From publication doi:10.1101/2023.02.23.529715 (bioRxiv, 2023)
Read-outs that look alike come from different tables or passages of the source.

Columns and labels:
[1] = molecular target: GFP-HilD (Salmonella enterica) (UniProt P0CL08); assay: MST
[2] = molecular target: HilD N-terminal domain (HilD NTD, residues 7-206) (Salmonella enterica) (UniProt P0CL08); assay: SEC-MALS
[3] = molecular target: HilD (full length, unfused) (Salmonella enterica) (UniProt P0CL08); assay: SEC-MALS
[4] = molecular target: GFP-HilD (Salmonella enterica) (UniProt P0CL08); assay: MST; remark: listed apart in the source
GFP-HilD [5] = molecular target: T1, GFP-HilD (Salmonella enterica, UniProt P0CL08 1-309); assay: MST
T1 sequence (looked up): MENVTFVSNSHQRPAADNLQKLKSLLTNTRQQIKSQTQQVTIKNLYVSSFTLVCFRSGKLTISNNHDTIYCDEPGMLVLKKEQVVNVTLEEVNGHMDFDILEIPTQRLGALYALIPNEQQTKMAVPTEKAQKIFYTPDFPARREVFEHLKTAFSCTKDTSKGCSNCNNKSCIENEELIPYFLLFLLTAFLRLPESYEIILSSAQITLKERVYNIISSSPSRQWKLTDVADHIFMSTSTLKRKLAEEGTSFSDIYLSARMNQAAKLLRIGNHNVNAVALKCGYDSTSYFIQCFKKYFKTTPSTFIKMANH

GFP-HilD [6] = molecular target: T1, GFP-HilD; assay: MST; remark: listed apart in the source
SEC-MALS = molecular target: the molecule itself; assay: SEC-MALS

Row | Molecule | Kd [1] [µM] | stoichiometry N (HilE per HilD NTD) [2] | stoichiometry N (HilE per HilD) [3] | Kd [4] [µM] | Kd (GFP-HilD [5]) [µM] | Kd (GFP-HilD [6]) [µM] | stoichiometry N (SEC-MALS)
1 | HilE (natural protein) | 1.7 | 1 | 1 | 1.68 |  |  | 
2 | HilD (full length, unfused) (natural protein, Salmonella enterica, UniProt P0CL08 1-309, looked up) MENVTFVSNSHQRPAADNLQKLKSLLTNTRQQIKSQTQQVTIKNLYVSSFTLVCFRSGKLTISNNHDTIYCDEPGMLVLKKEQVVNVTLEEVNGHMDFDILEIPTQRLGALYALIPNEQQTKMAVPTEKAQKIFYTPDFPARREVFEHLKTAFSCTKDTSKGCSNCNNKSCIENEELIPYFLLFLLTAFLRLPESYEIILSSAQITLKERVYNIISSSPSRQWKLTDVADHIFMSTSTLKRKLAEEGTSFSDIYLSARMNQAAKLLRIGNHNVNAVALKCGYDSTSYFIQCFKKYFKTTPSTFIKMANH |  |  |  |  | 4.52 ± 0.5 | 3.39 ± 0.77 | 2
3 | HilD N-terminal domain (HilD NTD, residues 7-206) (domain or fragment, Salmonella enterica, UniProt P0CL08 7-206, looked up) VSNSHQRPAADNLQKLKSLLTNTRQQIKSQTQQVTIKNLYVSSFTLVCFRSGKLTISNNHDTIYCDEPGMLVLKKEQVVNVTLEEVNGHMDFDILEIPTQRLGALYALIPNEQQTKMAVPTEKAQKIFYTPDFPARREVFEHLKTAFSCTKDTSKGCSNCNNKSCIENEELIPYFLLFLLTAFLRLPESYEIILSSAQIT |  |  |  |  |  |  | 2
